# According to paper PMC11555717 (Cancer Medicine, 2024):
# Assay: EV-203 safety/tolerability: adverse events
# Assay type: in vivo, human
# Source text: Safety assessments included physical and ophthalmologic examinations, clinical laboratory tests, 12‐lead electrocardiography, and ECOG PS.
# PFS was defined as the time from the start of the study treatment to the first documentation of objective tumor progression (i.e., progressive disease per RECIST version 1.1) by IRC or investigator assessment (whichever was specified) or to death due to any cause, whichever came first. OS was defined as the time from the start of study treatment to the date of death due to any cause. […] AEs of special interest were medical concepts of composite terms based on search criteria (standard Medical Dictionary for Regulatory Activities query or sponsor‐specific query/customized Medical Dictionary for Regulatory Activities query). For example, skin reactions included categories of rash and severe cutaneous adverse reactions (which included specific events such as drug eruption, eczema, dermatitis, mouth ulceration, stomatitis, etc.). Data for treatment‐related AEs (TRAEs) were evaluated by the investigator.
# All patients who received any amount of study drug were included in the primary analyses of efficacy endpoints and safety analyses.
substance,measurement,setting,value
"enfortumab vedotin: fully human monoclonal ADC directed to Nectin-4, delivering intracellular monomethyl auristatin E (MMAE) to tumor cells",Treatment-related adverse event: Rash,"any grade, N = 40",17 (42.5) n (%)
same,Treatment-related adverse event: Rash maculopapular,"any grade, N = 40",6 (15.0) n (%)
same,Treatment-related adverse event: White blood cell count decreased,"any grade, N = 40",16 (40.0) n (%)
same,"Treatment-related hyperglycemia grade 3, patients",four patients,10.0%
same,Treatment-related adverse event: Any,"grade ≥ 3, 1.25 mg/kg, N = 40",29 (72.5) n (%)
same,Treatment-emergent adverse event: Alopecia,"grade ≥ 3, N = 40",0 n (%)
same,Treatment-emergent adverse event: Anemia,"grade ≥ 3, N = 40",6 (15.0) n (%)
same,Treatment-emergent adverse event: Any,"grade ≥ 3, N = 40",30 (75.0) n (%)
same,Treatment-emergent adverse event: Aspartate aminotransferase increased,"grade ≥ 3, N = 40",1 (2.5) n (%)
same,Treatment-emergent adverse event: Constipation,"grade ≥ 3, N = 40",0 n (%)
same,Treatment-emergent adverse event: Decreased appetite,"grade ≥ 3, N = 40",1 (2.5) n (%)
same,Treatment-emergent adverse event: Diarrhea,"grade ≥ 3, N = 40",2 (5.0) n (%)
same,Treatment-emergent adverse event: Hyperglycemia,"grade ≥ 3, N = 40",3 (7.5) n (%)
same,Treatment-emergent adverse event: Hypokalemia,"grade ≥ 3, N = 40",2 (5.0) n (%)
same,Treatment-emergent adverse event: Hyponatremia,"grade ≥ 3, N = 40",5 (12.5) n (%)
same,Treatment-emergent adverse event: Hypophosphatemia,"grade ≥ 3, N = 40",5 (12.5) n (%)
same,Treatment-emergent adverse event: Nausea,"grade ≥ 3, N = 40",0 n (%)
same,Treatment-emergent adverse event: Neutrophil count decreased,"grade ≥ 3, N = 40",8 (20.0) n (%)
same,Treatment-emergent adverse event: Pneumonia,"grade ≥ 3, N = 40",5 (12.5) n (%)
same,Treatment-emergent adverse event: Pruritus,"grade ≥ 3, N = 40",2 (5.0) n (%)
same,Treatment-emergent adverse event: Pyrexia,"grade ≥ 3, N = 40",0 n (%)
same,Treatment-emergent adverse event: Rash,"grade ≥ 3, N = 40",5 (12.5) n (%)
same,Treatment-emergent adverse event: Rash maculo-papular,"grade ≥ 3, N = 40",4 (10.0) n (%)
same,Treatment-emergent adverse event: Vomiting,"grade ≥ 3, N = 40",0 n (%)
same,Treatment-emergent adverse event: White blood cell count decreased,"grade ≥ 3, N = 40",5 (12.5) n (%)
same,Treatment-related adverse event of special interest: Corneal disorder/blurred vision,"grade ≥ 3, N = 40",0 n (%)
same,Treatment-related adverse event of special interest: Dry eye,"grade ≥ 3, N = 40",0 n (%)
same,Treatment-related adverse event of special interest: Hyperglycemia (composite),"grade ≥ 3, N = 40",5 (12.5) n (%)
same,Treatment-related adverse event of special interest: Infusion-related reaction,"grade ≥ 3, N = 40",0 n (%)
same,Treatment-related adverse event of special interest: Peripheral neuropathy (composite),"grade ≥ 3, N = 40",0 n (%)
same,Treatment-related adverse event of special interest: Skin reaction (composite),"grade ≥ 3, N = 40",13 (32.5) n (%)
same,Treatment-related adverse event: Alopecia,"grade ≥ 3, N = 40",0 n (%)
same,Treatment-related adverse event: Anemia,"grade ≥ 3, N = 40",6 (15.0) n (%)
same,Treatment-related adverse event: Aspartate aminotransferase increased,"grade ≥ 3, N = 40",1 (2.5) n (%)
same,Treatment-related adverse event: Constipation,"grade ≥ 3, N = 40",0 n (%)
same,Treatment-related adverse event: Decreased appetite,"grade ≥ 3, N = 40",1 (2.5) n (%)
same,Treatment-related adverse event: Diarrhea,"grade ≥ 3, N = 40",2 (5.0) n (%)
same,Treatment-related adverse event: Hyperglycemia (preferred term),"grade ≥ 3, N = 40",3 (7.5) n (%)
same,Treatment-related adverse event: Hypokalemia,"grade ≥ 3, N = 40",2 (5.0) n (%)
same,Treatment-related adverse event: Hyponatremia,"grade ≥ 3, N = 40",5 (12.5) n (%)
same,Treatment-related adverse event: Hypophosphatemia,"grade ≥ 3, N = 40",4 (10.0) n (%)
same,Treatment-related adverse event: Nausea,"grade ≥ 3, N = 40",0 n (%)
same,Treatment-related adverse event: Neutrophil count decreased,"grade ≥ 3, N = 40",8 (20.0) n (%)
same,Treatment-related adverse event: Pruritus,"grade ≥ 3, N = 40",2 (5.0) n (%)
same,Treatment-related adverse event: Rash,"grade ≥ 3, N = 40",5 (12.5) n (%)
same,Treatment-related adverse event: Rash maculopapular,"grade ≥ 3, N = 40",4 (10.0) n (%)
same,Treatment-related adverse event: White blood cell count decreased,"grade ≥ 3, N = 40",5 (12.5) n (%)
same,"Dose interruption due to fatigue, patients",most common TRAE leading to dose interruption,10.0%
same,"Dose reduction due to rash, patients",most common TRAE leading to dose reduction,22.5%
same,"Hyperglycemia leading to treatment discontinuation, patients",one patient,2.5%
same,"Treatment-related hyperglycemia grade 4, patients",one patient,2.5%
same,"Death due to a TRAE, patients","one patient, acute coronary syndrome",2.5%
same,"Treatment discontinuation due to TRAEs, patients","two patients: acute coronary syndrome, hyperglycemia and rash",5.0%
same,"Deaths following malignant neoplasm progression, patients","two patients, not considered treatment-related",5.0%
